The results in this text go back to the DeepSol protein solubility set.

A short description of this data set: soluble on expression in E. coli; label from the status in PepcDB or PDB records.
Consider “DIQMNQSPSSLSASLGDTITITCHASQNINVWLNWFQQKPGSIPKLLIYMASNLHTGVPSRFSGSGSGTGFTLTISSLQPEDIATYYCQQGQSFPLTFGGGTKLEIKRADAAPTVSIFPPSSEQLTSGGASVVCFLNNFYPKDINVKWKIDGSERQNGVLNSWTDQDSKDSTYSMSSTLTLTKDEYERHNSYTCEATHKTSTSPIVKSFNRN”, for which the “soluble on expression in E. coli” value is reported as “soluble”.
For the sequence “DITGIPTGFNELDKMTAGFQRNDLIIVAARPSVGKTAFALNIAQNVATKTDENVAIFSLEMGAEQLVMRMLCAEGNINAQNLRTGALTSDDWQKLTIAMGTLSNSGIYIDDTPGVRVNEIRSKCRRLKQETGLGMIVIDYLQLIAGSGRGGENRQQEVSEISRSLKALARELEVPVIALSQLSRSVEQRQDKRPMMSDI”, the “soluble on expression in E. coli” value is “not soluble”.
In the case of “DKEWNEKELQKLHCAFASLPKHKPGFWSEVAAAVGSRSPEECQRKYMENPRGKGSQKHVT”, the “soluble on expression in E. coli” value is on record as “soluble”.
Consider “DKVSLKLPKSNGELFEFKWLDHKIAYIALNGFHDKKILQDFNDVYDEIKQSRGLIIDLRFNGGGNSSIAAEILSHFTNKGLEGSIWKNRKHIAAFKAWGNYSGKYKIYAQDNAWESGAMESLKAKENSHIVPTYVLIGRNTASAAEDFLIYADKLKHFTTLGENTYGSTGQPIFFDLPGGGSFRICTKRDTYPDGREFVGYGITPQVIIDRMPEHLRSEKDIVLYSAIKKLKEKI”, for which the “soluble on expression in E. coli” value is recorded as “not soluble”.
In the case of “DLTAIIGLEVHVQLETDTKIFCGCSTDTDDADPNTHTCPVCLGLPGALPTLNEGAVEAAVKLGKAIDADIPERTRFHRKNYFYPDLPKGFQITQYDAPICQDGELEVGTADDRRAIGIERAHLEEDPGSLQHVGGSIEDADYTLVDYNRAGTPLMEIVTRPDFRAAEEVRSFLAKLTSVLEYLGVFDAERDGSLRVDANISMVDSAELAGEGGPSDDVLEAANRTEVKNISSHRAAQKALAYETTRQRNQLER” it was “not soluble”; in that of “DNKINIGLAVMKILESWGADTIYGIPSGTLSSLMDAMGEEENNVKFLQVKHEEVGAMAAVMQSKFGGNLGVTVGSGGPGASHLINGLYDAAMDNIPVVAILGSRPQRELNMDAFQELNQNPMYDHIAVYNRRVAYAEQLPKLVDEAARMAIAKRGVAVLEVPGDFAKVEIDNDQWYSSANSLRKYAPIAPAAQDIDAAVELLNNSKRPVIYAGIGTMGHGPAVQELARKIKAPVITTGKNFETFEWDFEALTGSTYRVGWKPANETILEADTVLFAGSNFPFSEVEGTFRNVDNFIQIDIDPAMLGKRHHADVAILGDAALAIDEILNKVDAVEESAWWTANLKNIANWREYINMLETKEEGDLQFYQVYNAINNHADEDAIYSIDVGNSTQTSIRHLHMTPKNMWRTSPLFATMGIAIPGGLGAKNTYPDRQVWNIIGDGAFSMTYPDVVTNVRYNMPVINVVFSNTEYAFIKNKYEDTNKNLFGVDFTDVDYAKIAEAQGAKGFTVSRIEDMDRVMAEAVAANKAGHTVVIDCKITQDRPIPVETLKLDSKLYSEDEIKAYKERYEAANLVPFREYLEAEGLESKYIK”, “soluble”; in that of “DPDEDSDNSAIYVQGLNDSVTLDDLADFFKQCGVVKMNKRTGQPMIHIYLDKETGKPKGDATVSYEDPPTAKAAVEWFDGKDFQGSKLKVSLARKKPPMN”, “soluble”.
As to “DQALATALPGKWIHLRILALANAHIVIDEVHTLDHYQTALLENILPILAKLKTKITFLTATMPSWQRTKLLTAYGGEDLQIPPTVFPAAETVLPGQFNRTLIDSDSTTIDFTMEETSYDHLVESHVKWHQTTRLNAPHARIGLICNTVKRAQEIAAALEKTNDRIVLLHSRMTTEHRRRSAELLESLLGPNGNRKTITVVGTQAIEASLDIDLDILRTELCPAPSLVQRAGRVWRRNDPYRSSRITADHKPISVVFIAEAEDWQVLPYLRAETSRTQRWLEKHNQMFLPQMAQEFIDAATVDLDTATSEMDLDALALMGIHLMKADGAKARIQDVLNSDSKVSDFALLTSKNEIDEAQTRLIEEGTHLRIILGDENESIPGGWKHGLSSLLKLKASDRESLRTALLASIPLLVSEKQKQLLYQHN”, the “soluble on expression in E. coli” value was “not soluble”.
For “DQGIVIYNAQHENLVKSWVDGFTKDTGIKVTLRNGGDSELGNQLVQEGSASPADVFLTENSPAMVLVDNAKLFAPLDAATLAQVEPQYRPSHGRWIGIAARSTVFVYNPAKLSDAQLPKSLLDLAKPEWKGRWAASPSGADFQAIVSALLELKGEKATLAWLKAMKTNFTAYKGNSTVMKAVNAGQVDSGVIYHYYPFVDGAKTGENSNNIKLYYFKHQDPGAFVSISGGGVLASSKHQQQAQAFIKWITGKQGQEILRTNNAFEYAVGVGAASNPKLVPLKDLDAPKVDAAQLNSKKVVELMTEAGLL” the value was “soluble”; for “DREELDKQLRHERERFRLLVDAVENYAIFLLDPDGLIQSWNVGAKQLTQYEESDILGEHVSTFHTEKQVADGIPEQLLQEAEECGKAIDRGLRVRKDGSTFWADVTVTALQENSDARGFAKVIKDIT”, “not soluble”; for “DRTIPDYTSFNTVDEWLDAIKMSQYKESFASAGFTTFDIVSQMTVEDILRVGVTLAGHQKKILNSIQVMRAQMNQ”, “soluble”.
On to “DSDDRVTPPAEPLDRMPDPYRPSYGRAETVVNNYIRKWQQVYSHRDGRKQQMTEEQREWLSYGCVGVTWVNSGQYPTNRLAFASFDEDRFKNELKNGRPRSGETRAEFEGRVAKESFDEEKGFQRAREVASVMNRALENAHDESAYLDNLKKELANGNDALRNEDARSPFYSALRNTPSFKERNGGNHDPSRMKAVIYSKHFWSGQDRSSSADKRKYGDPDAFRPAPGTGLVDMSRDRNIPRSPTSPGEGFVNFDYGWFGAQTEADADKTVWTHGNHYHAPNGSLGAMHVYESKFRNWSEGYSDFDRGAYVITFIPKSWNTAPDKVKQGWP”, for which the “soluble on expression in E. coli” value is “soluble”.
For “DVFQNKANVCWAKALVPVLKTAGIDMTTEQWNTVDYFETDKAHSAEIVLNQLCVRFFGLDLDSGLFSAPTVPLSIRNNHWDNSPSPNMYGLNKEVVRQLSRRYPQLPRAVATGRVYDMNTGTLRNYDPRINLVPVNRRLPHALVLHHNEHPQSDFSSFVSKLKGRTVLVVGEKLSVPGKMVDWLSDRPEATFRARLDLGIPGDVPKYDIIFVNVRTPYKYHHYQQCEDHAIKLSMLTKKACLHLNPGGTCVSIGYGYADRASESIIGAIARQFKFSRVCKPKSSLEETEVLFVFIGYDRKARTHNPYKLSSTLTNIYTGS” the value was “soluble”; for “DVQKKTFTKWINARFSKSGKPPINDMFTDLKDGRKLLDLLEGLTGTSLPKERGSTRVHALNNVNRVLQVLHQNNVELVNIGGTDIVDGNHKLTLGLLWSIILHWQVKDVMKDVMSDLQQTNSEKILLSWVRQTTRPYSQVNVLNFTTSWTDGLAFNAVLHRHKPDLFSWDKVVKMSPIERLEHAFSKAQTYLGIEKLLDPEDVAVRLPDKKSIIMYLTSLFEVLPQ”, “soluble”; for “DWNNQSIVKTGERQHGIHIQGSDPGGVRTASGTTIKVSGRQAQGILLENPAAELQFRNGSVTSSGQLSDDGIRRFLGTVTVKAGKLVADHATLANVGDTWDDDGIALYVAGEQAQASIADSTLQGAGGVQIERGANVTVQRSAIVDGGLHIGALQSLQPEDLPPSRVVLRDTNVTAVPASGAPAAVSVLGASELTLDGGHITGGRAAGVAAMQGAVVHLQRATIRRGDALAGGAVPGGAVPGGAVPGGFGPGGFGPVLDGWYGVDVSGSSVELAQSIVEAPELGAAIRVGRGARVTVPGGSLSAPHGNVIETGGARRFAPQAAPLSITLQAGAHAQGKALLYRVLPEPVKLTLTGGADAQGDIVATELPSIPGTSIGPLDVALASQARWTGATRAVDSLSIDNATWVMTDNSNVGALRLASDGSVDFQQPAEAGRFKVLTVNTLAGSGLFRMNVFADLGLSDKLVVMQDASGQHRLWVRNSGSEPASANTLLLVQTPLGSAATFTLANKDGKVDIGTYRYRLAANGNGQWSLVGAKAPP”, “soluble”.
Consider “DWVIPPINLPENSRGPFPQELVRIRSDRDKNLSLRYSVTGPGADQPPTGIFIINPISGQLSVTKPLDRELIARFHLRAHAVDINGNQVENPIDIVINVIDMNDNRPEFLHQVWNGSVPEGSKPGTYVMTVTAIDADDPNALNGMLRYRIVSQAPSTPSPNMFTINNETGDIITVAAGLDREKVQQYTLIIQATDMEGNPTYGLSNTATAVITVTD”, for which the “soluble on expression in E. coli” value is on record as “soluble”.
Consider “EADYKQATALELATLVREKKVTSEELVKIALAITKRENPTLNAVITLREEAALTEAKALQDTGQPFLGVPLLLKGLGQSLKGESNTNGFGFLQDQVAGGTSTFVKALQNAGFIIIGQTNYPELGWKNISDSKLYGVSVNPWNPNHYSGGSSGGAGASVAAAFVPIASGSDAGGSIRIPASWTGTVGLKPSRGVIIGNSNSAKGQTVHFGLSRTVADTNALFETLLTKKDLPAGHLSQAQPIAYTTESPAGTPISAEAKEAVAEAVAFLKDQGYTLVEVKHPVDGERLMKNYYTVAAGSAGIADFMARQKLKRPLERNDVELLTWALFQTGKNITSEETTAAWTDIALQAQAMDEFYQQYPILLTPTTAATAPSIDNPLLKPEHAAQMEKIDQLSPAEQKQLIYDQWLTAFTYTPFTQQANLFGHPALSVPTYVSKEGLPLGIQFNSALNEDRTLLQLGALFENNHK”, for which the “soluble on expression in E. coli” value was “not soluble”.
Consider “EAVIVVDERDVVIDLNPQAKAIIGTPGAAWIGRPLEDVLPGLIELRDSPTDDIPDRAEITVPVNGEERAYEVRQTPLHRGYGTVTGQLITLTD”, for which the “soluble on expression in E. coli” value is listed as “not soluble”.
In the case of “EAYLGVMINDLVTKEISDPYRLLTSRAEHRLWLRNDNLQERLIEKSRALGLVEADVYANYLEQQQKKKQLIDYLQTTTVGQIAALKLNFKNTAQTLFDFTKRAEIKLVDLVQLLPKRFDLDVQSLNQIDIDIKYAGYIKKSEKYFKSLNNLSSVKIPLKLNYHKVPNLASEAIVKLSKIRPTDLSVASQVAGINFNDILAIKHFLDNHE” it was “soluble”; in that of “EDGRILKRFCQCEQRSLEQLMKDPLRPFVPAYYGMVLQDGQTFNQMEDLLADFEGPSIMDCKMGSRTYLEEELVKARERPRPRKDMYEKMVAVDPGAPTPEEHAQGAVTKPRYMQWRETMSSTSTLGFRIEGIKKADGTCNTNFKKTQALEQVTKVLEDFVDGDHVILQKYVACLEELREALEISPFFKTHEVVGSSLLFVHDHTGLAKVWMIDFGKTVALPDHQTLSHRLPWAEGNREDGYLWGLDNMICLLQGLAQS”, “soluble”.
In the case of “EEHLSVMYERLRQELPKLFLQSHDYSLYSLDVEFINEILNIRTKGRTWYILSLTLCRFLAWNYFAHLRLEVLQLTRHPENWTLQARWRLVGLPVHLLFLRFYKRDKDEHYRTYDAYSTFYLNSSGLI”, the “soluble on expression in E. coli” value is given as “soluble”.
For “EEQIMRRNEDSWLIDGATPLEDVMRALNIHTFPRDENYETIGGFMMYMLRKIPKKTDFVLYDKYKFEIIDTENFRIDQLMVSFRK” the value was “soluble”; for “EESPFVGNPGNITGARGLTGTLRCQLQVQGEPPEVHWLRDGQILELADSTQTQVPLGEDEQDDWIVVSQLRITSLQLSDTGQYQCLVFLGHQTFVSQPGYVGLEGLPYFLEEPEDRTVAANTPFNLSCQAQGPPEPVDLLWLQDAVPLATAPGHGPQRSLHVPGLNKTSSFSCEAHNAKGVTTSRTATITVLPQQ”, “soluble”.
In the case of “EFGQNRATLLASIDVALEHAELFAADDDQMGLFLDESFSIKPKYVETEELPLVDLLAFEKETLGIYFSNHPLSAFRKQLTAQGAVSILQAQRAV” it was “not soluble”.
Take “EFVGRGIGNSVREDLSFNLLLSSDMDETQAQELQRQIAATPFVKDVSYISADQALEEMKKELGEDDPAKMLGYNPLQAEMCVHLKAQYTHPDSLKTIDSAIRTWNGVDNLEYRADMFDIVHRNTRR”: the “soluble on expression in E. coli” value is “not soluble”.
